The values that follow come from PMC12236752.

pKd: −log10 of the molar value.

The assay addresses Avs8A (ECOR07), fused to 6xHis-SUMO (E. coli ECOR07) (UniProt B7LDL1). The experiment in a line: MST.

Turning to “Basel 21 major capsid protein (natural protein)”, the pKd (as a rule, −log10 of the Kd, conventionally taken in molar units) is 7.85.
